This note sets out measurements from US20260185093.

The data set relates to T1, SpuFz1 (FZID16) (Spizellomyces punctatus).
T1 sequence: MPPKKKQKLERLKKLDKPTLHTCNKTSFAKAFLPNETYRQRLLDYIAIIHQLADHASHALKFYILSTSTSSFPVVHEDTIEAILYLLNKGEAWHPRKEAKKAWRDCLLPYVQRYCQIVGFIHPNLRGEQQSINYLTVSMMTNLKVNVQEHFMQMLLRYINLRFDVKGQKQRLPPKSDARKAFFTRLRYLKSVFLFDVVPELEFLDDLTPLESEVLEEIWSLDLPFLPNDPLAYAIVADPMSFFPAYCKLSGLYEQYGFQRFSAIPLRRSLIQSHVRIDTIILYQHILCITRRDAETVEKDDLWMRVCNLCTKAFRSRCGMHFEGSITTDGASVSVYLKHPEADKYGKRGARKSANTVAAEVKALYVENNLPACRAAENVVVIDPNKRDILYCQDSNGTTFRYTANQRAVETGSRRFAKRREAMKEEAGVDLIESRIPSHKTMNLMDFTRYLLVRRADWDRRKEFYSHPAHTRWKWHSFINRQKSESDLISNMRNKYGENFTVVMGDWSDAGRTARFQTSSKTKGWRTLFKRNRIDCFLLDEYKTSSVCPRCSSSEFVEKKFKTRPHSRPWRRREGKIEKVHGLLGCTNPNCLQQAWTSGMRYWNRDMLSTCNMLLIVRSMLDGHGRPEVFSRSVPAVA
The data set can be described thus: cell_activity. The settings on record: HEK293FT, TAM CATA.

Regarding “GUUUUCCGAGCCGGUUGUCGCGCGGUUCAAUCCCUGGUGCGGGUGCUAGUGCCAAUACCCACCGGCUCCGCACUAGCAUUCCUUAACACAUCACU / GCATTCCTTAACACATCACT / AGTGATGTGTTAAGGAATGC”, where the note is “gID7, minimal omegaRNA”, the activity was 0.17 % indel.
“GUCCACGGACUGCUGGGUUGUACCAACCCUAACUGUUUGCAGCAAGCCUGGACAUCGGGAAUGCGCUACUGGAAUCGAGAUAUGCUGUCAACCUGCAACAUGCUAUUGAUUGUGAGAUCAAUGUUGGAUGGACACGGUAGACCAGAAGUGUUCAGCAGGAGUGUUCCAGCCGUAGCGUAGAACGUAGAUUGGUUAGAUUAGGUUUUCCGAGCCGGUUGUCGCGCGGUUCAAUCCCUGGUGCGGGUGCUAGUGCCAAUACCCACCGGCUCCGCACUAGCAUUCCUUAACACAUCACU / GCATTCCTTAACACATCACT / AGTGATGTGTTAAGGAATGC” registered an activity (gID7, longest initial scaffold) of 0.78 % indel.
